# Assay results published in publication PMC10382678, “The collagen ColQ binds to LRP4 and regulates the activation of the Muscle-Specific Kinase–LRP4 receptor complex by agrin at the neuromuscular junction” (The Journal of Biological Chemistry, 2023).
# Experiments:
# [1] = molecular target: T1, purified recombinant mouse ectoLRP4 His-tag (R&D Systems) (mouse, UniProt Q8VI56 21-1725); test: SPR; same ColQ-Flag surface; single-cycle kinetics with purified ectoLRP4-His at 296, 444, 666, 1000 and 1500 nM, 5 μl/min, 3 min association, 5 min dissociation, no regeneration; HBS-EP; 1:1 binding model with drifting baseline; n = 2; conditions: one partner purified
# T1 construct: low-density lipoprotein receptor-related protein 4, mouse, ectodomain; also called purified ectoLRP4; source: bought: R&D Systems
# T1 sequence (Q8VI56 21-1725): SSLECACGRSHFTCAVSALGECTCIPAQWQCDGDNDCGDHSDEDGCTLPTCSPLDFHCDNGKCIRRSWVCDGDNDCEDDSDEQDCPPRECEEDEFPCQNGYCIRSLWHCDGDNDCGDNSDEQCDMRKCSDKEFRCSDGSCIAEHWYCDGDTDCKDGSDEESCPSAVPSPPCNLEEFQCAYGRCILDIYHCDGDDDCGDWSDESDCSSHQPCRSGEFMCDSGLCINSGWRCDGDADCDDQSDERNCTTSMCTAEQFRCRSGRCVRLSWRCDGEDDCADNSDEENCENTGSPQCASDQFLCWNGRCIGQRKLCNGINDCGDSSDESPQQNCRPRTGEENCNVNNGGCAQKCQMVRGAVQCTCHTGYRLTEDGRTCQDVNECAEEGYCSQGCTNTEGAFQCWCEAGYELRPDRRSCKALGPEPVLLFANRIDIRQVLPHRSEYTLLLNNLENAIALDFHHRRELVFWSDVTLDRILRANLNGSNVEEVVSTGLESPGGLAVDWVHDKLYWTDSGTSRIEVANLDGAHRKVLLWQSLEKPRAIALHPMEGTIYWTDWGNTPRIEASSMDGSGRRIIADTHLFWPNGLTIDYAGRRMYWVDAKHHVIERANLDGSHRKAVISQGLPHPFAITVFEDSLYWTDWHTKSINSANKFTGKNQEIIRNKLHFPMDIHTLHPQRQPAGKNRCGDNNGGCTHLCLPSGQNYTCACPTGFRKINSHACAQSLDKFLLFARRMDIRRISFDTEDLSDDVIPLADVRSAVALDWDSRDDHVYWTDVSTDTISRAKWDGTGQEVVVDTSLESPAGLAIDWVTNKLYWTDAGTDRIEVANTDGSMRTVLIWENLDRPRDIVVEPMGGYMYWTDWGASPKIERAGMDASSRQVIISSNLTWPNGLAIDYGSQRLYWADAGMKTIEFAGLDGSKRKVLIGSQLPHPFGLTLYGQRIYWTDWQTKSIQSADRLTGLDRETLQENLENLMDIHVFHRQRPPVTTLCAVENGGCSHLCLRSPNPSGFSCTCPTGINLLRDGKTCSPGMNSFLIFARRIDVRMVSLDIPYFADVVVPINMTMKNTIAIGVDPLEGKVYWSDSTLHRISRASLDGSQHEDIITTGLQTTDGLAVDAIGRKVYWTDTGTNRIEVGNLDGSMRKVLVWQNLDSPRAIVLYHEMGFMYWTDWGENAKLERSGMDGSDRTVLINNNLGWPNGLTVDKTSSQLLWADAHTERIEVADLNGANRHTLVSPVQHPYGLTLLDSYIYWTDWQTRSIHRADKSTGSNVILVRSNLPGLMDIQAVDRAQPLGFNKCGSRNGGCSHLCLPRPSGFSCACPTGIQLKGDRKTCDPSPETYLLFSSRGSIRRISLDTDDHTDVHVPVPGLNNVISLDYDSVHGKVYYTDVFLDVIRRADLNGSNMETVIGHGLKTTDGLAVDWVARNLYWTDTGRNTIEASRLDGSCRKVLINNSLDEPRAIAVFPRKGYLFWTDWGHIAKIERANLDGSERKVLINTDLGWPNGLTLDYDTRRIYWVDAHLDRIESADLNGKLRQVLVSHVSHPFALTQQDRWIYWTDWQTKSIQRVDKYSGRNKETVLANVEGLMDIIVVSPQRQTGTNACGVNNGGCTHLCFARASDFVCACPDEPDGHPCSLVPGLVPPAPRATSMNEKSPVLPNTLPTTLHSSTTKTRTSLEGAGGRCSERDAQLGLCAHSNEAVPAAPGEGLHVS
# [2] = molecular target: the molecule itself; test: co-sedimentation; extracts (0.8 M NaCl, 1% CHAPS) of HEK 293T cells cotransfected with ColQ-Flag and AChE, run on 5 to 20% sucrose gradients with 0.8 M NaCl, 10 mM EDTA, 0.2% Brij-97; fractions assayed for AChE activity; profile not shown
binder,measurement,setting,value
"ColQ-Flag (rat collagen Q, ColQ1a, with a Flag epitope after amino acid 26) (natural protein, UniProt O35167 23-458, looked up, Never purified on its own, only immunocaptured from lysates; source: captured from the lysate on anti-Flag beads, wells or sensor chip; not shown: Flag, internal (after residue 26), kept) QPTFINSVLPISAALPGLDQKKRGNHKACCLLMPPPPPLFPPPFFRGSRSPLLSPDMKNLLELEASPSPCMQGSLGSPGPPGPQGPPGLPGKAGPKGEKGDLGRPGRKGRPGPPGVPGEPGPVGWPGPEGPRGEKGDVGMMGLPGSRGPMGSKGFPGSRGEKGSRGERGDLGPKGEKGFPGFPGMLGQKGEMGPKGESGIAGHRGPTGRPGKRGKQGQKGDSGIMGPPGKPGPSGQPGRQGPPGPPGPPSAGQLVMGLKGERGFPGPPGRCLCGPPANVNNPSYGDPMYGRGSPRVPAIFVVNNQEELEKLNTQNAIAFRRDQRSLYFKDSLGWLPIQLTPFYPVGLHHKAAWHLCGDGVLQPGEECDDGNPDVSDGCIDCHRAYCGDGYRHRGVEDCDGSDFGYLKCETYLPGSYGELRCTQYCSIDSTPCRYFT",Kd,[1],94 nM
same,koff,[1],0.0091 s⁻¹
same,kon,[1],96400 M⁻¹ s⁻¹
same,stoichiometry N,[2],3
